Laboratory results published in patent publication US10428140B2, “Anti-EphA4 antibody” (EISAI R&D MANAGEMENT CO., LTD., priority 2015, dated 2019).
Residue numbers refer to the chain shown, from its start.

T1: human EphA10 (Homo sapiens, UniProt Q5JZY3)
T1 construct: a protein of the extracellular region of each human Eph receptor fused with the SEAP protein and the His tag; made in house; host or cells: Expi293F cells (culture supernatant)
T1 sequence (Q5JZY3 34-565 limits assumed): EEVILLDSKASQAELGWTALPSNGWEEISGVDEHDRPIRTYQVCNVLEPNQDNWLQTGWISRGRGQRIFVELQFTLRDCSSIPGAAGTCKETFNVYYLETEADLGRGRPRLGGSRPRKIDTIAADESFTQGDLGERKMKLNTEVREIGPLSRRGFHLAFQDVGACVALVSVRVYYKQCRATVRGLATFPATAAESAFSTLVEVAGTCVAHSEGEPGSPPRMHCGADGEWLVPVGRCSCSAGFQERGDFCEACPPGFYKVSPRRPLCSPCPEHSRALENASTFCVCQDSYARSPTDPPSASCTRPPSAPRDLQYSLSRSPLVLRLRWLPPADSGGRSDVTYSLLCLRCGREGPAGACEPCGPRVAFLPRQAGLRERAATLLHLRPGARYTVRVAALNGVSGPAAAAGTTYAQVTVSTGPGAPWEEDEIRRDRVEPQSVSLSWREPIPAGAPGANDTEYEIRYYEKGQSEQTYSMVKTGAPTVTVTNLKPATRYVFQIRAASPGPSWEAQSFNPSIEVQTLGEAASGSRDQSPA

T2: human EphA6 (Homo sapiens, UniProt Q9UF33)
T2 construct: a protein of the extracellular region of each human Eph receptor fused with the SEAP protein and the His tag; made in house; host or cells: Expi293F cells (culture supernatant)
T2 sequence (Q9UF33 23-550 limits assumed): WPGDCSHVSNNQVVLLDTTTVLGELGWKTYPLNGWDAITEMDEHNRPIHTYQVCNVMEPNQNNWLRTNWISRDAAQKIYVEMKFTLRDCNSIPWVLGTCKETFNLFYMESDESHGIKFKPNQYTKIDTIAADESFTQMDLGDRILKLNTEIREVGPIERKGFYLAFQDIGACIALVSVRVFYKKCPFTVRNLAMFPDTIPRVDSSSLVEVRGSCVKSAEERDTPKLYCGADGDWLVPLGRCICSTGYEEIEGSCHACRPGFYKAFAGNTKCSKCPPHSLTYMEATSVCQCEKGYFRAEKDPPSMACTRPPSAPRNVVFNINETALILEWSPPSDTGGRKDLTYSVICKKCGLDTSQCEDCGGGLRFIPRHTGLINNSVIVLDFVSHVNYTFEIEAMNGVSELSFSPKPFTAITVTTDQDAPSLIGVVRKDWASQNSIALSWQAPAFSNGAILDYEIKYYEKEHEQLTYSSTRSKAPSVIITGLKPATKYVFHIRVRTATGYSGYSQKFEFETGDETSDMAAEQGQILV

T3: human EphB6 (Homo sapiens, UniProt O15197)
T3 construct: a protein of the extracellular region of each human Eph receptor fused with the SEAP protein and the His tag; made in house; host or cells: Expi293F cells
T3 sequence (O15197 32-594 limits assumed): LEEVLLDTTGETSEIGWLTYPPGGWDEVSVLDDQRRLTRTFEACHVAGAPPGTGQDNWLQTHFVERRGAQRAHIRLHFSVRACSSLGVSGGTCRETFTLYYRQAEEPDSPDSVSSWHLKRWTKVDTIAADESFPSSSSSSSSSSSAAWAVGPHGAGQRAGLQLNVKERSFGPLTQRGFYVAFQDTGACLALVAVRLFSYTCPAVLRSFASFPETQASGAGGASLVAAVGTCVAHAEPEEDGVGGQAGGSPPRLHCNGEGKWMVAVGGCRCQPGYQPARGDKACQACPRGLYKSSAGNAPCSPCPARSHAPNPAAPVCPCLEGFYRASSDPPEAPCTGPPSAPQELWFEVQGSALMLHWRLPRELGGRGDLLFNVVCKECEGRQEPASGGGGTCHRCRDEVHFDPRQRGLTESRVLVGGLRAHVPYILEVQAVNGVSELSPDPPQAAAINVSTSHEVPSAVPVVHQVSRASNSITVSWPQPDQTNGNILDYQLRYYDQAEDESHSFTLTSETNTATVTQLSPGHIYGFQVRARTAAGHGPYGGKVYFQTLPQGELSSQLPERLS

B1: 157 (antibody, V domains shown)
VH: QVQLVQSGSELKKPGASVKVSCKASGYTFTDYSMHWVRQAPGQGLEWMGWINTETGEPTYAQGFTGRFVFSLDTSVSTAYLQISSLKAEDTAVYYCARIPLYYYGSRYWYFDVWGQGTTVTVSS
VL: DIQMTQSPSSLSASVGDRVTITCRASENIYRNLAWYQQKPGKAPQLLLYAATNLADGVPSRFSGSGSGTDYTLTISSLQPEDFATYYCQHFWGTPWTFGQGTKVEIK
modifications: synthetic humanized antibody heavy chain variable region sequence; synthetic humanized antibody light chain variable region sequence
B2: 132 (antibody, V domains shown)
VH: B1 VH with V2I, E46K
VL: EIVMTQSPATLSVSPGERATLSCRASENIYRNLAWYQQKPGQSPRLLIYAATNLADGIPARFSGSGSGTEYTLTISSLQSEDFAVYYCQHFWGTPWTFGQGTKVEIK
modifications: synthetic humanized antibody heavy chain variable region sequence; synthetic humanized antibody light chain variable region sequence
B3: 160 (antibody, V domains shown)
VH: B1 VH with V2I, E46K, Q62D, G63D, T65K
VL: B1 VL
modifications: synthetic humanized antibody heavy chain variable region sequence; synthetic humanized antibody light chain variable region sequence
B4: 75 (antibody)
VH: B1 VH
VL: B1 VL with Q45K, L48V
chain: ASTKGPSVFPLAPSSKSTSGGTAALGCLVKDYFPEPVTVSWNSGALTSGVHTFPAVLQSSGLYSLSSVVTVPSSSLGTQTYICNVNHKPSNTKVDKRVEPKSCDKTHTCPPCPAPPAAAPSVFLFPPKPKDTLMISRTPEVTCVVVDVSHEDPEVQFNWYVDGVEVHNAKTKPREEQFNSTFRVVSVLTVVHQDWLNGKEYKCKVSNKGLPAPIEKTISKTKGQPREPQVYTLPPSREEMTKNQVSLTCLVKGFYPSDIAVEWESNGQPENNYKTTPPMLDSDGSFFLYSKLTVDKSRWQQGNVFSCSVMHEALHNHYTQKSLSLSPG
modifications: synthetic humanized antibody heavy chain variable region sequence; synthetic humanized antibody light chain variable region sequence; synthetic antibody constant region sequence
B5: 133 (antibody, V domains shown)
VH: B1 VH
VL: B2 VL
modifications: synthetic humanized antibody heavy chain variable region sequence; synthetic humanized antibody light chain variable region sequence
B6: 135 (antibody, V domains shown)
VH: B1 VH with Q62D, G63D, T65K
VL: B2 VL
modifications: synthetic humanized antibody heavy chain variable region sequence; synthetic humanized antibody light chain variable region sequence
B7: 159 (antibody, V domains shown)
VH: B1 VH with E46K, Q62D, G63D, T65K
VL: B1 VL
modifications: synthetic humanized antibody heavy chain variable region sequence; synthetic humanized antibody light chain variable region sequence
B8: 134 (antibody, V domains shown)
VH: B1 VH with E46K
VL: B2 VL
modifications: synthetic humanized antibody heavy chain variable region sequence; synthetic humanized antibody light chain variable region sequence
B9: 144 (antibody, V domains shown)
VH: B1 VH with Q62D, G63D, T65K
VL: B1 VL
modifications: synthetic humanized antibody heavy chain variable region sequence; synthetic humanized antibody light chain variable region sequence
B10: 158 (antibody, V domains shown)
VH: B1 VH with E46K
VL: B1 VL
modifications: synthetic humanized antibody heavy chain variable region sequence; synthetic humanized antibody light chain variable region sequence

These molecules were tested against T1, human EphA10 (assay: Selectivity ELISA of humanized antibodies for human Eph receptor). Conditions: coated protein 1 nM.
Assay type: binding
Outline: (§1)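 His-tagged SEAP fusions of each human Eph receptor extracellular region, from Expi293F supernatants, were captured at 1 nM on anti-His-coated wells. Humanized antibody was bound 1 h at room temperature, then detected with HRP […] IgG. TMB development was acid-stopped and read at 450 nm.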

hEphA10-SEAP-: absorbance at 450 nm, percentage with respect to hEphA4-SEAP-His as 100% | Molecule
6.1% | B1
4.7% | B2
5.0% | B3
4.4% | B4
4.7% | B5
5.1% | B6
5.3% | B7
5.0% | B8
5.7% | B9
6.4% | B10

The molecules below were run against T2, human EphA6 in the same assay as above. Conditions: coated protein 1 nM.
Assay type: binding
Outline: as §1

hEphA6-SEAP-: absorbance at 450 nm, percentage with respect to hEphA4-SEAP-His as 100% | Molecule
9.0% | B1
9.7% | B2
8.7% | B3
8.3% | B4
8.8% | B5
7.0% | B6
7.6% | B7
9.6% | B8
8.1% | B9
10.0% | B10

These molecules were tested against T3, human EphB6 in the same assay as above. Conditions: coated protein 1 nM.
Assay type: binding
Outline: as §1

hEphB6-SEAP-: absorbance at 450 nm, percentage with respect to hEphA4-SEAP-His as 100% | Molecule
6.3% | B1
4.7% | B2
6.2% | B3
4.7% | B4
4.8% | B5
5.3% | B6
5.5% | B7
5.2% | B8
5.9% | B9
6.3% | B10
